This experiment concerns the target 4-1BB (Acro) (Homo sapiens (assumed)) (UniProt Q07011). The experiment in a line: SPR.

As usually defined, the Kd is a measure of binding affinity in units of concentration. A higher Kd goes with a looser complex.

The substance “Urelumab, variable domains in human IgG1 expression vectors (antibody)” displayed a Kd of 8 nM.

Values taken from publication doi:10.1101/2025.11.26.690765.
